Data published in the nanobody polyreactivity screen of Harvey et al. (2022).

Assay: yeast display, Sf9 membrane polyspecificity reagent, FACS + sequencing; frameworks hold sequencing errors
Summary of the method: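 Synthetic nanobody libraries on Saccharomyces cerevisiae BJ5465 were galactose-induced for 36–48 hours, stained 1 hour at 4 °C with 10% biotinylated, detergent-solubilized Sf9 membrane reagent and enriched on streptavidin microbeads. FACS then separated cells into low and high (top ~1%) gates by anti-HA (expression) and streptavidin (reagent binding) fluorescence. Genes were colony-PCR amplified, MiSeq 2 × 250 sequenced and CDR-length filtered. A clone's polyreactivity label is that of its gate of origin.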

Sequence	polyreactivity (PSR sort gate)
QVHLVESGGGLVQAGGSLRLSCAASGSILDEYAMGWYRQPPGKESELVAAISSSGTSTYYADSVKRRFTISRDNAKNTDYLQMNSLKPEDTAVYDCARVKQHRSHRVPGDDYWGQGTQVTVSS	low polyreactivity
QVQLVESGGGLVQAGGSLRLSCAASGFTFNYYAMGWYRQAPGKERELVAAISGRGGSTYYADSVKGRFTISRDNAKNTVYLQMNSLIPEDTAVYYCAADYWYDYYSTEYDYWGQGTQVTVSS	low polyreactivity
EEELVESAVRLVQAGVSLRLSCAASAIIYAYNAMGWYRQAPGKESELVAAISSGDDTNYADSVKGRFTISRDNAKNTVYLQLNSLKPEDTAVYYCAAEVWTAFTHGSYWTVVDYDYWGQGTQVTVST	low polyreactivity
QVQLVESGGALLQAGGSLRLSCAASGGTFYDYAMGWYRQAPGKERELVAAISASGDSTYYADSVKGRFTISRDNAMNTVYLQMNSLKPEDTAVYYCAAEFTAFDGFDYWGQGTQVTVSS	low polyreactivity
QVQLVESGGGLVQAGGSLRLSCAASGLILVYYAMGWYRQAPGKERELVAAITPGGSTKYADSVKGRFTISRDNAKNTVYFQMNSLKPEDTAVYYCAVDGDWHEPGNYIYEYDYWGQGTQVTVSS	low polyreactivity
QVQLVESGGGLVQAGGSLRLSCAASGGTFKRYAMGWYRQAPGKERELVAAISGRGGSTYYADSVKGRFTISRDNAKTTVYLQMNSLKPEDTAVYYCNAGGSPQFYGRSKGDYWGQATQVTVSS	high polyreactivity
QVQLVESGGGLVQAGGSLRLSCAASGSIFYRNVMGWYRQAPGKERELVAAISRSGGSTYYADSVKGRFTISRDNAKNTVYLQMNSLQPEDTAVYYCAGRYSPFYYWGQGTQVTVSS	high polyreactivity
QVQLVESGGGLVQAGGSLRLSCAASGRIFRYNAMGLYRQAPGKERELVAVITSRGGRTYYADSVKGRFTISRDNAKNTVYLQMNSLKPEDTAVYYCTAKRYRYYRWYFTGKYDYWGQGTQVTVSS	high polyreactivity
QVQLVESGGGLVQAGGSLRLSCAASGIIFTYNAMGWSRQAPGKERELVAAISWRGGSTYYADSVKGRFTISRDNAKNTVYLQMNSLKPEDTAVYYCARYGTDHRLGYGYWGQGTQVTVSS	low polyreactivity
QVQLVESGGGLVQAGGSLRLSCAASGSTFTHYAMGWYIQAPWKERELVAGISWGGSSTYYADSVKGRFTISRDNAKNTVYLQMNSLKPEDTAVYYCAAGRRGSYPGGYGYWGQGTQVTVSS	low polyreactivity
QVQLVDSGGGLVQAGVSLRLSCAASGSIFRGNAMGWYRQAPVKERELVAAINKSGGSTYYADSVKGRFTISRDNAKNTVYLQMNSLKQEDTAVYYCAAVYKRLQPYGYWGQGTQVTVSS	high polyreactivity
QFQLVESGGGLDQAGGSLRLSCAASGRTFHAYAMGSYRQAHGKGRELVAAITRTGTTHYADSVKGRFTISRDNAKNTVFLQMNSLKPEDTAVYYCAAQHVRVAAQFVLQGYDYWGQGTQVTVSS	low polyreactivity
QVQLVESGGGLVQAGGSLRLSCAASGRIFQQYAMGWSRKAPGKERELVAAISRNGGSTYYADSVKGRFTISRDNAKNTVYLQMNRLKTEDTAVYYCNARRNAASTLRKDYGYWGQGTQVSVSS	high polyreactivity
QVQLLESGGGLVQAGGSLRLSCAASGRIFRAYAMGWYRQAPGKERELVAAISWRYGSTYYADSVKGRFTISRDNAKNTVYLQMNSVKPEDTAVYYCAAEYDWPGYDYWGQGTQVTVSS	high polyreactivity
QVQLVESGGGLDQAGGSLRLSSAASGRTVDIYAMGWYRQAPWKEWELVAAITRGGSTYYADSVKGRFTISRDNAKNTVYLQMNCLIPEDTAVYYCSAKLGTGYRRWYDYWGQGTQVTVSS	high polyreactivity
QVHLVESGGGLVQAGGSLRLSCAASGYTFVVYAMGWYIQAPGKERELVAAINKSGGSTYYADSVKGRFTISRDHAKNSVYLQMNSLKAEDTAFYYCAADLLKLRTDYYWGQGTQVTVSS	low polyreactivity

Sequence	polyreactivity (PSR sort gate)
QVQLVESGGGLVQAGGSLRLSCAASGRTSWVYAMGWYRQAPGTERELVASIRKRTVVYADSVKGRFTISRDNAKNTVYLQMNSLKPEDTAVYYCNADTTFYGYRTYRPENYWGQGTQVTVSS	high polyreactivity
QLQLVESGGGLVQAGGSLRLSCAASGRTFQGYAMGWYRQAPGKERELVAAISRSGGRTYYADSVKGRFTISRDNAKYTVYLQMNSLKPEDTAVYYCCTEAFRDYGYWGQGTQVTVSS	high polyreactivity
QVQLVESGGGLVQAGGSLRLSCAASGLTIFVNAMGWYRQAPGKERELVATISCGGSTYYADSVKGRFTISRDNANNTVYLQLNSLKPEDSSVFYCNAADVGGQWWYPYTYNYWGQGTQVTVSS	low polyreactivity
QVQLVESGGGLVQAGGSLRLSCAASGITFDYYDMGWYRQAPGKERELVATITSDGSTTYADSVKGRFTISRDNAKNTVYLQMNSLKPEDTAVYYCAAALHIYSYFYITYDYWGQGTQVTVSS	high polyreactivity
QVQLVESGGGLVQAGGSLRLSCAASGSNFAYYTMGWYRPAPGKERELVAAITSGGSTYYADSVKGRFTISRDNAKNTVYLQMNSLKPEDTAVYYCATRHSVGRYGMDSWGQGTQVTVSS	high polyreactivity
QVQLEESGGGLVQAGGSLRLSCAASGSIFKGYAMGWYRQAPGKESELVAAISGGGGSTYYADSVKGRFTISRDNAKNTVYLQMNSLKPEDTAVYYCNRDDSWSPSGAYDYWGQGTQVNVSS	low polyreactivity
QVQLQESGGGLVQAGGSLRLSCAASGYIFPRIYMGWYRQAPGKEREFDAGISYDAITNYADSVKGRFTISLDNAKNTVYLQMNSLKPEDTAVYYCAVSYYGTPLFTYWGQGTQVTVSS	high polyreactivity
QVQLVESGGGLVQAGGSLRLTCAASGRTFIVYAMGWYRQAPGKERELVAGITRGSTNYADSVKGRFTISRDNAKNTVYLQMNSLKPEDTAVYYCATEVYIWPWGTVYAFEYDYWGQGTQVTVSS	high polyreactivity
QVQLVESGGGLVQAGGSLRLSCAASGRTFWLYAMGWYRQAPGKEREFVASISSSGDSTYYADSVKGRFTISRDNAKNTVYLQMNSLKPEDTAVYYCAARPSRRYLRNGLDYWGQGTQVTVSS	high polyreactivity
QVQLVESGGGLVQAGGSLRLSCAASGRIFKVYAMGWYRQAPGKERELVAAITWSGVSTYADSVKGRFTISRDNAKNTVYLQMNSLKPEDTAVYYCAAYLRSPGDRQGYYYWGQGTQVTVSS	high polyreactivity
QVQLVESGGALVQAGGSLRLSCAASGNTFRGYTMGWYRQAPGKEREFVAAISWSGGRTNYADSVKGRFTISRDNAKNTVYLQMNSLTPEDTAVYYCGRDYRARRWGMDYWGQGTQVTVSS	high polyreactivity
QVQLVESGGGLVQAGGSLRLSSAASGRTFRGYAMGWYRQAPGKERELVAAISVTGSSTNYAYSVKGRFTISRDNAKNTVYLQMNRLKPEDTAVYDCNAKRVRYSLSYDYWGQGTQVTVSS	high polyreactivity
QVQRVESGRGLVHAGGRLRLSCAASGSIFTYYPMGWSRPAPGKERELVAAISYSGGTTYYADSVKGRFTISRDNAKNTVYLQMNSLKPEDTAVYYCNVDADYESKWLSVGYDYWGQGTQVTVSS	low polyreactivity
QVQLVESGGGLVKAGGSLRLSCAASGSTFRPYAMGWYRPAPGKERELVAAITSRGGSTYYADSVKGRFTISRDNAKNTVSLQMNSLKPEDTAVYYCAASYEVVASSYRYYYWGQGTQVTVSS	high polyreactivity
QVQLVESGGGLVQAGGSLRLSCAASGSTFYYYAMGWYRQAPGKERELVAAITYRGGSTYYADSVKGLFTISRDNAKNTVYLQMNSLKPEDTAVYYCSKVGYKTSSIRYGYWGQGTQVTVSS	high polyreactivity
